Measurements as given in patent US6204034A, “Leukotriene C4 synthase” (Merck Frosst Canada & Co., priority 1994, dated 2001).
Blank lines part the entries; values can stand above or below the molecule they belong to.

Experiments:
LTC4 synthase [1] = target: T1, LTC4 synthase (Homo sapiens, UniProt Q16873); test: Measurement of LTC4 synthase activity (LTC4 formation from LTA4 and reduced glutathione, reverse-phase HPLC); assay type: biochemical; design: endogenous in cells; host or cells: THP-1 cells; some values from human lung tissue
T1 sequence (Q16873 1-150): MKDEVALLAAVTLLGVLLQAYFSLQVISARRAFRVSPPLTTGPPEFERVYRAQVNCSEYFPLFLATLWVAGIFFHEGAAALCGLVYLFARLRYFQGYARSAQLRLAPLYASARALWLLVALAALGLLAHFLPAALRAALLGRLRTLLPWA
Method: The mixtures were allowed to stand for a minimum of 30 min. at 4° C. (or overnight). […] The bulk of the resulting supernatant (250 μl) was then transferred to sample vials for reverse-phase HPLC of which 200 μl was injected for analysis.
Analysis of LTC4 Formation by Reverse-Phase HPLC--The reaction products formed in the incubation mixtures described above were resolved by isocratic reverse-phase HPLC on a Waters Associates Novapak C18 column (3.9×150 mm, 4μ particle size). The mobile phase was acetonitrile:methanol:water:acetic acid at 54:14:28:1 adjusted to pH 5.6 with 10 NaOH and was pumped at a flow rate of 1.0 mL/min. LTC4 was quantified by on-line measurement of the optical density at 280 nm. The LTC4 peak was identified by its retention time compared to a synthetic standard (normally 10 min.).

LTC4 synthase [2] = target: T1, LTC4 synthase; details: LTC2-X-biotin:streptavidin-agarose column
[3] = Longevity of LTA4 free acid in mock incubation mixtures under aqueous conditions; assay type: physicochemical; details: mock incubation mixtures with 0.05% (w/v) bovine serum albumin and potassium phosphate buffer
Description: Hydrolysis of LTA4 Methyl Ester--The methyl ester of leukotriene A4 was hydrolyzed to the free acid essentially as described by Carrier, D. J. et al., Prostaglandins Leukot. Essent. Fatty Acids, 34, 27-30 (1988). The hydrolysis was monitored by determination of LTA4 by reverse-phase HPLC at pH 10 (Wynalda, M. A. et al., Anal. Chem., 54, 1079-1082 (1982)) except that LTA4 and LTA4 -methyl ester were eluted by a gradient of 20 to 70% (v/v) acetonitrile in borate buffer instead of isocratically as described in Wynalda et al. LTA4 -methyl ester (1.0 mg in hexane) was dried under a stream of nitrogen and then dissolved in 4 mL of 0.25 M NaOH:acetone (2:8 v/v). Following incubation for 60 min. at 25° C., the hydrolysis mixture was portioned into aliquots that were stored at -80° C. (up to 1 month). Following this procedure, the recovery of LTA4 free acid was >95% as confirmed by analysis of the hydrolysis products by reverse-phase HPLC under alkaline conditions (Wynalda et al.).

[4] = target: T2, THP-1 microsomal membrane protein (Homo sapiens, UniProt Q16873); test: Photoaffinity labelling of THP-1 cell membranes; assay type: binding; details: 20 pM ligand, 0.3 mg THP-1 microsomal membrane protein, SDS-gel autoradiography
T2 construct: 0.3 mg of THP-1 microsomal membrane protein; endogenous in cells; host or cells: THP-1 cells (microsomal membranes)
T2 sequence (Q16873 1-150): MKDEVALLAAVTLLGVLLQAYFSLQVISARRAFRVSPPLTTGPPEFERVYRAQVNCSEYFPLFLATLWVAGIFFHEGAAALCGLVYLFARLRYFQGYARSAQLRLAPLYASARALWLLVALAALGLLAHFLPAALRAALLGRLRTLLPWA
Method: The mixtures were incubated in 1.5 mL microcentrifuge tubes for 30 min. at 25° C. then transferred to 35 mm diameter cluster plate wells for photolysis. The samples in cluster plates were cooled for 5 min. at 4° C. then illuminated from above with a 40W ultraviolet light source (Phillips, λmax =350 nm) at a distance of 5 cm for 2 min. at 4° C. The samples were then transferred back into 1.5 mL microcentrifuge tubes and the membranes were re-isolated by centrifugation for 15 min. at 200,000×g. The resulting pellets were dissociated in SDS-containing sample buffer, denatured at 95° C. for 5 min. and then the proteins were resolved by SDS-gel electrophoresis. Radioactive bands in the dried gels were visualized by autoradiography and quantified by laser densitometry.

[5] = substrate: N[C@@H](CCC(=O)N[C@@H](CS)C(=O)NCC(=O)O)C(=O)O; test: purified protein, by the assay type; details: 25.0 °C
[6] = substrate: CCCCCC=CCC=CC=CC=CC1OC1CCCC(=O)O; test: purified protein, by the assay type; assay type: biochemical, human; details: 25.0 °C
[7] = other: THP-1 cells LTC4 synthase
[8] = other: human monocytes LTC4 synthase
[9] = purification fractions from 2×10^11 THP-1 cells

Preferred substrate (LTC4 synthase [1]): LTA4 free acid >> LTA4 methyl ester
Molecule: CCCCCC=CCC=CC=CC=CC1OC1CCCC(=O)OC (stereo not shown) [LTA4 methyl ester, methyl ester of leukotriene A4, reference compound]

Molecule: N[C@@H](CCC(=O)N[C@@H](CS)C(=O)NCC(=O)O)C(=O)O [GSH, Reduced glutathione, reference compound]
effect on LTC4 synthase binding to the affinity resin (LTC4 synthase [2]): inhibited LTC4 synthase binding to the affinity resin

half-life [3]: approximately 30 min.
Preferred substrate (LTC4 synthase [1]): LTA4 free acid >> LTA4 methyl ester
Molecule: CCCCCC=CCC=CC=CC=CC1OC1CCCC(=O)O (stereo not shown) [LTA4, leukotriene A4, reference compound]

Molecule: [Cl-].[Na+] [NaCl]
effect on LTC4 synthase binding to the affinity resin (LTC4 synthase [2]): inhibited LTC4 synthase binding to the affinity resin

Molecule: CCCCC/C=C\C\C=C/C=C/C=C/[C@@H](SC[C@H](NC(=O)CC[C@H](NC(=O)CCCCCNC(=O)c1cc([125I])c(N=[N+]=[N-])cc1O)C(=O)O)C(=O)NCC(=O)O)[C@@H](O)CCCC(=O)O [Azido^125 I LTC4]
photoaffinity radiolabelling of membrane polypeptide [4]: specifically radiolabelled a single membrane polypeptide

Activity (LTC4 synthase [1]; [9]): 1.378 nmol · min^-1 .multid
Spec. Activity (LTC4 synthase [1]; [9]): 4135 nmol · min^-1 .multid
Rel. Spec. Activity (LTC4 synthase [1]; relative to specific activity in harvested cells set at 1.00): 27,384
B1: LTC4 synthase (Homo sapiens) (protein)
chain: MKDEVALLAAVTLLGVLLQAYFSLQVISARRAFRVSPPLTTGPPEFERVYRAQVNCSEYFPLFLATLWVAGIFFHEGAAALCGLVYLFARLRYFQGYARSAQLRLAPLYASARALWLLVALAALGLLAHFLPAALRAALLGRLRTLLPWA
notes: endogenous in cells; host or cells: THP-1 cells; some values from human lung tissue
Km [5, 7]: 1670 µM
Km [5, 8]: 1200 µM
Km [6, 7]: 9.89 µM
Km [6, 8]: 5.6 µM
